{"source": "the DeepSol protein solubility set"}
{"assay": "soluble on expression in E. coli; label from the status in PepcDB or PDB records"}
{"sequence": "MGHHHHHHSHMRSTGSAPSCSGESARAHRRRAGAMSIRSSRTKHSTAQKGAHRRRVSLAGFFNLIYKRQDLGLDFLREMSEPLCTSRPVLLPLNLKNIAPGRCISLTPFGHTDNLGFQCETCTDPNLNKSIPPKLEDPAFSKNELCSVTLTFYQQAEQVIQHKQFYLSLLNLSMDAVRNSLTQPGLLYCYLVTKAFMLEGFPIFFEETNGMLGLYLVFRRDLLHLHESYLRLLIDNLGNYDISVDSVGRSYIIKLCPVGNVSRIPTIPADNVCLAVNNLDYGDDVKASWIECFNIVSRLSQQ", "soluble on expression in E. coli": "not soluble"}
{"sequence": "MGHHHHHHSHMSDWLEHSVQVEVAVPVARAWELWSDLEQMPRWMKWIDSVQVQKDDPELSRWKLASQGFEFSWLSRITRLVPQQLIQWESVDGLPNRGAIRFYDRQDHSIVRLSISYAIPGGLGPLMDKLFLGRIVEGTLKADLDRFRHYAESPR", "soluble on expression in E. coli": "not soluble"}
{"sequence": "MGHHHHHHSHMSTKVPIYLKRGSRKGKKEKLRDLLSSDMISPPLGDFRHTIHIGSGGGSDMFGDISFLQGKFHLLPGTMVEGPEEDGTFDLPFQFTRTATVVGRELPDGPSPLLKNAISLPVIGGPQALTLPTAQAPPKPPRLHLETPQPSPQEGGSVDIWRIPETGSPNSGLTPESGAEEPFLSNASSLLSLHVDLGPSILDDVLQIMDQDLDSMQIPT", "soluble on expression in E. coli": "not soluble"}
{"sequence": "MGHHHHHHSHMSTVAFHTLGCKVNHYETEAIWQLFKQGGYERTEYEKKADVYVINTCTVTNTGDKKSRQVIRRAVRQNPDAVICVTGCYAQTSPAEIMAIPGVDIVVGTQDREKMLGYIEEFRKERQPINAVRNIMKTRVYEELDVPYFTDRTRASLKIQEGCNNFCTFCIIPWARGLMRSRDGKEVIKQAQQLVDAGYKEIVLTGIHTGGYGEDIKDYNLAGLLRDMEAEVGGLKRLRISSIEASQISDEVIEVLDKSEVVVRHLHIPLQSGSNTVLKRMRRKYTMEFFQERLDRLKEALPGLAITSDVIVGFPGETEEEFMETYNFIKENRFSELHVFPYSKRTGTPAARMEDQVPEDVKNDRVHRLIELSNQLAKEYASAFEGEVLEIIPEEQFKDGDREGLYVGYTDNYLKIVFEGSEELIGKLVKVKITKAGYPYNEAQFVRVLEDDVKKESASA", "soluble on expression in E. coli": "soluble"}
{"sequence": "MGHHHHHHSHMTAPFFPRILGAVAFLNQETEPLTMNLQHHFLIAMPALQDPIFRRSVVYICEHNTNGAMGIIVNKPLENLKIEGILEKLKITPEPRDESIRLDKPVMLGGPLAEDRGFILHTPPSNFASSIRISDNTVMTTSRDVLETLGTDKQPSDVLVALGYASWEKGQLEQEILDNAWLTAPADLNILFKTPIADRWREAAKLIGVDILTMPGVAGHA", "soluble on expression in E. coli": "soluble"}
{"sequence": "MGHHHHHHSHMTDCEFGYIYRLAQDYLQCVLQIPQPGSGPSKTSRVLQNVAFSVQKEVEKNLKSCLDNVNVVSVDTARTLFNQVMEKEFEDGIINWGRIVTIFAFEGILIKKLLRQQIAPDVDTYKEISYFVAEFIMNNTGEWIRQNGGWENGFVKKFEPKSGWMTFLEVTGKICEMLSLLKQYC", "soluble on expression in E. coli": "not soluble"}
{"sequence": "MGHHHHHHSHMTDIKILDACCGSRLFWFDKNEPHTTFMDVRQEKFEMHGKKINVNPDVIGDFRDMPFESNSFNLVVFDPPHLKYVGQNSIMKAQYGQLDKENWKEDISKGFEECMRVLKVGGTLVFKWSDCQVNVREVLSAIPFKPLFGQQRGTTHWMTFVKFELTGNGG", "soluble on expression in E. coli": "not soluble"}
{"sequence": "MGHHHHHHSHMTSETPDYLLKYAAISSSEQRQSYKNDFNAEYSEYRDLHARIERITRRFTQLDAQLRQLSQGSEEYETTRGQILQEYRKIKKTNTNYSQEKHRCEYLHSKLAHIKRLIAEYDQRQLQAWP", "soluble on expression in E. coli": "soluble"}
{"sequence": "MGHHHHHHSHMTSLMDLTLLLARSQPELIEAHTCERIMCCVAQQASEKIDRFRAHAASVFLTLLHFDSPPIPHVPHRGELEKLFPRSDVASVNWSAPSQAFPRITQLLGLPTYRYHVLLGLVVSLGGLTESTIRHSTQSLFEYMKGIQSDPQALGSFSGTLLQIFEDNLLNERVSVPLLKTLDHVLTHGCFDIFTTEEDHPFSVKLLALCKKEIKNSKDIQKLLSGIAVFCEMVQFPGDVRRQALLQLCLLLCHRFPLIRKTTASQVYETLLTYSDVVGADVLDEVVTVLSDTAWDAELAVVREQRNRLCDLLGVPRPQLVPQPGAC", "soluble on expression in E. coli": "not soluble"}
{"sequence": "MGHHHHHHSHMVGLDIDSRLIHSARQNIRHYLSEELRLPPQTLEGDPGAEGEEGTTTVRKRSCFPASLTASRGPIAAPQVPLDGADTSVFPNNVVFVTGNYVLDRDDLVEAQTPEYDVVLCLSLTKWVHLNWGDEGLKRMFRRIYRHLRPGGILVLEPQPWSSYGKRKTLTETIYKNYYRIQLKPEQFSSYLTSPDVGFSSYELVATPHNTSKGFQRPVYLFHKARSPSH", "soluble on expression in E. coli": "not soluble"}
{"sequence": "MGHHHHHHSHMVGTQPRFLVKIHQKFYWAIRDDLIIHGGYKRSGLTSSFALVAMGPLGRPWAASFGFFFLAVVSLATPTPGEDDDIPVKIHRLTFVKGLVPDVTGGSSYYVCVYPSRKLFCTPTRWKDLSRFLNSETLNQVCSARTIYSVVPVEMLRIISLPLPPEIKSIVGGSIRSQYVSFPTFISLHPAKLPIWKSFANLKVSMKFRSSQWEVAFSVVSKTDYAITYWAEIPGFLIHESATINLINQPLLALYADLHVDMVMRLTDKFIYCQTYTLQQKNLTDPRTGKRPTSSVLIPSPHVKNCQIRRRNETHFVDTCSSAWDNYTSEAHNISRNSSSRGSNATQLVNITANPCTLPTLWDNWPCYTNYRSSPVPEIVIHENILLEGRAIYIIYHQIGLFDQPRLCVATFWMSKEETLLMQLDYPCEVSVEKKGKKFFIKSVVSMYHAISMVTFIWEYGIEIYDFLE", "soluble on expression in E. coli": "not soluble"}
{"sequence": "MGHHHHHHSHMVKMEPENKYLPELMAEKDSLDPSFTHAMQLLTAEIEKIQKGDSKKDDEENYLDLFSHKNMKLKERVLIPVKQYPKFNFVGKILGPQGNTIKRLQEETGAKISVLGKGSMRDKAKEEELRKGGDPKYAHLNMDLHVFIEVFGPPCEAYALMAHAMEEVKKFLVPDMMDDICQEQFLELSYLNG", "soluble on expression in E. coli": "soluble"}
{"sequence": "MGHHHHHHSHTGKTTVAVNLAVFNHIDLFDLDVEEPNDRIFIKGEAEEWPAYRKVPEVRENCNACGVCKDVCQYSAIYVIDKAYPLPELCHSCGACIYLCPEKAMEEVDYQTGKIVRVKSDITLTYGEMRIGEASAVFLIKQVKELMGKNAIIDSPPGASCPMVESVSDADYVILVAEPTPFGLHDLKIAAEVVSDLGLKFGVVVNKHGLPFDGIERYCKEGGVEILGKIPFSKEIAEKYSRGELLHDMKDFFVQLYEG", "soluble on expression in E. coli": "not soluble"}
{"sequence": "MGHHHHHHSHTRDELRAKALHIPFPVEKIINLPVVDFNEMMSKEQFNEAQLALIRDIRRRGKNKVAAQNCRKRKLENIVELEQDLDHLKDEKEKLLKEKGENDKSLHLLKKQLSTLYLEVFSMLRDEDGKPYSPSEYSLQQTRDGNVFLVPKSKK", "soluble on expression in E. coli": "soluble"}
{"sequence": "MGHHHHHHSHVFDRPDLGDQAILVSLDFGDADYQESVAECAELVRGSKVEILGMVQGKRQRPDAALFAGKGKVEEIASMVRATGANVVIFNHALSPGQERNLERALQCRVIDRNSLILDIFAQRARSHEGKLQVELAQLSHLSTRLVRGWTHLERQKGGVGLRGPGETQLETDRRLLGIRVKALKDRLAQVQKQRNTQRRSRNRAGVSSVSIVGYTNAGKSTLFNALTKANIYAADQLFATLDTTSRKLFLNHDCSVVLSDTVGFIRDLPHTLVAAFRATLEETVQANLLLHVVDCANETRDAQIDEVNKVLAEIDADGIPQLIVWNKGDLRELPPEIERDEDGVAVAVRVSALKGEGLELLREAIAERVQPFANNHKEPYEHVAE", "soluble on expression in E. coli": "soluble"}
{"sequence": "MGHRSRSNSRSQSRSRENSRGRSRSASKSPVYHRRERESSRSRSPRARYGGGGGGGGGGGRGRNQQYDRENPQPSKCLGVFNLSSYTTEKDLRDVFGEFGEINKCDLVYDRPSGNSRGFGFIYFNLIEDATAARDKLCNTDLDGHKIRVDFSLTKRGHSPTPGQYMGDRRGGGSSGGGRFGGGGGDRFNDRGSRGGDRYGGDRRGGGGGGGGDRYGGGGGDRYGGDRYGGGGGRRGSPDRRGGFRSGGGGGGYMRSGGGGGGPDRRDHRDNDRNGGGGGHRPYDPSFRRRVESYGSGNSGGGGGRRDRY", "soluble on expression in E. coli": "not soluble"}
{"sequence": "MGIKQYSQEELKEMALVEIAHELFEEHKKPVPFQELLNEIASLLGVKKEELGDRIAQFYTDLNIDGRFLALSDQTWGLRSWYPYDQLDEETQPTVKAKKKKAKKAVEEDLDLDEFEEIDEDDLDLDEVEEELDLEADDFDEEDLDEDDDDLEIEEDIIDEDDEDYDDEEEEIK", "soluble on expression in E. coli": "not soluble"}
{"sequence": "MGILSDKDIAYLKDLFGKELKRKVKIVFFKTEDKTRCQYCEITEQVLEELVSVDPKLELEIHDFDSDKEAVEKYQVEMVPATILLPEDGKDYGIRFYGVPSGHEFGTLIQDIITVSEGKPQLSEESIQKLQSLEEPIRISVFVTPTCPYCPRAVLMAHNMAMASDKIIGEMIEANEYWELSEKFGVSSVPHIVVNRDPSKFFVGAYPEKEFINEVLRLAKG", "soluble on expression in E. coli": "soluble"}
{"sequence": "MGIRLKDLSKLGYRDNVARSLVVDIVGKYCKHDTKEQIAMTLSNILEHPESYKNNEIWSKLAERLSPTVLAKEFVAYDLREDPLMYKTYGGKFIETLAKQQMNLAMRLPVTVGGALMPDAHAGYGLPIGGVLATDNAVIPYAVGVDIGCRMSLTVFDAKADFLKRYSYQIKEALKDFTHFGMDGGLGFEQEHEVLDREEFRLTPLLKDLQGKAVRQLGSSGGGNHFVEFGEIALQADNVLNLPEGSYVALLSHSGSRGLGAAIAKHYSLLAREVCKLPREAQHFAWLSLDSEEGQEYWMSMNLAGDYARACHERIHLNLSKALGLKPVANVNNHHNFAWKEEIAPGRMAIVHRKGATPAQKGQAGLIPGSMATAGYLVCGKGVEESLCSASHGAGRAMSRQKAKESFTQSALKKMLSQADVTLIGGSIEEIPLAYKDIDRVMYTQETLVEVQGRFMPRIVRMNKE", "soluble on expression in E. coli": "not soluble"}
{"sequence": "MGKEITENIIDVEFKCNHFKMNGYIGNNNIYRSNKNLQHIYINKRFVKSKIIIDAITESYKSIIPIGKHAVCFLNIEVDPSCIDVNIHPNKLEIKFEKEQEVYIELRDFLKVKLIHSNLIGLEHHHHHH", "soluble on expression in E. coli": "not soluble"}
{"sequence": "MGKIKIGINGFGRIGRLVARVALQSEDVELVAVNDPFITTDYMTYMFKYDTVHGQWKHSDIKIKDSKTLLLGEKPVTVFGIRNPDEIPWAEAGAEYVVESTGVFTDKEKAAAHLKGGAKKVVISAPSKDAPMFVCGVNEDKYTSDIDIVSNASCTTNCLAPLAKVIHDNFGIIEGLMTTVHAITATQKTVDGPSSKDWRGGRAASFNIIPSSTGAAKAVGKVLPDLNGKLTGMSFRVPTVDVSVVDLTVRIEKAASYDAIKSAIKSASEGKLKGIIGYVEEDLVSTDFVGDSRSSIFDAKAGIALNDNFVKLVAWYDNEWGYSNRVIDLIRHMAKTQ", "soluble on expression in E. coli": "soluble"}
{"sequence": "MGKKSKNSVTTQTQWKRLKIDFVERKIDKDDVFFEEVSDEQLNDKIIVPLFTSSGTFEETIGILIQWQEYLKSRSDRLSEVFLSKVNSYFEHIRITLALPFDESKWAELETLTETDLNKTPIFINNIRTSTVSVILHLENLIKSFHLNVKSAEIFPFDSDSFGLPPINCRKILNPLLWMKAGIEKLIQNNCQCDQPPIVPLITLLDLAPKEGHFQELAIASFFLENTAHKLDYSCSDDEKKFLDQIKMKFGTTKVDKLTMVLPDILMAYSEELVERVMPVSYFIPFELFRMMLLSWQPKVLNLRLRTEACSSIEDAARIEWDDEDVFTSTTLFNCPLFDRCEPVCLGDEEIILNCKLIVDCSGSRLFDPMFNEGNVYTAGRDFLVLFPMQTIILKRIVPLKVGSSVKVQLKKQIDYIVNTFFFNASEHQDRVVNYELTFTNSTDVQMSAVKRCIPQVANGRQIGVNLNVEQETRDLFTDHGNSCPGRHMFASFFDSENQVIVDLKVVLAN", "soluble on expression in E. coli": "not soluble"}
